Reference: publication PMC12254369, “Small molecule disruption of RARα/NCoR1 interaction inhibits chaperone-mediated autophagy in cancer” (EMBO Molecular Medicine, 2025)
Blank lines part the entries; values can stand above or below the molecule they belong to. Ends that are not written are not given here. * marks the point of attachment. FITC = O=C1OC2(c3ccc(O)cc3Oc3cc(O)ccc32)c2ccc(NC(=S)*)cc21; Ahx = NCCCCCC(=O)O

Legend:
[1] = molecular target: T1, His-tagged RARα LBD with FITC-SRC (Homo sapiens, UniProt P10276); assay: TR-FRET coactivator peptide recruitment; format: binding; conditions: 3 nM His-RARα LBD, 50 nM FITC-SRC, 5 mM DTT, pH 7.4, 1 h; agonist
T1 construct: gene RARA; LBD residues 176-462 with His tag
T1 sequence (P10276 176-462): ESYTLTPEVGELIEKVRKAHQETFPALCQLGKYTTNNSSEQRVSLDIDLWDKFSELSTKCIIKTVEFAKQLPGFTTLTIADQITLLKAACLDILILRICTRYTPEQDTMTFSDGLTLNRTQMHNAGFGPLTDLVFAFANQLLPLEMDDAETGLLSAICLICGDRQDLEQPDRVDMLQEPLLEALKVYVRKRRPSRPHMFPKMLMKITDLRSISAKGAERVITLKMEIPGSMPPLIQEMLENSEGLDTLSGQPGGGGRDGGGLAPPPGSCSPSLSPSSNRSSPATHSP

[2] = molecular target: T2, Recombinant RARα LBD (ligand binding domain of human retinoic acid receptor alpha, residues 176-462, … (human, UniProt P10276 176-462)); assay: fluorescence polarisation; RARα LBD serially diluted from 50 µM, 5 nM FITC-NCoR1 peptide; 20 mM HEPES, 150 mM NaCl, 5 mM DTT, pH 7.5; read at 1 h; with DMSO, 25 µM CIM7, 10 µM ATRA or AM580; conditions: both partners purified
T2 construct: The His tag is detected by the anti-6HIS Tb cryptate antibody in the TR-FRET assay; also called His-tagged RARα LBD; source: E. coli BL21(DE3), purified (Ni-NTA, Superdex 200 gel filtration); not shown: His tag, N-terminal, kept
T2 sequence (looked up): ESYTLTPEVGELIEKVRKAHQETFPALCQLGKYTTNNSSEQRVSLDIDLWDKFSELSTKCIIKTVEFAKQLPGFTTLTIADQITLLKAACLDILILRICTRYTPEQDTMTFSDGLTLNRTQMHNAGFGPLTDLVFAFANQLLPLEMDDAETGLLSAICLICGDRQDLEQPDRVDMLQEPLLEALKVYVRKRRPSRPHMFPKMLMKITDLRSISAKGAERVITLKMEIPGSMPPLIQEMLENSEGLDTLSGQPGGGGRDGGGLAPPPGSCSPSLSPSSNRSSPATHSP

[3] = molecular target: T2, Recombinant RARα LBD (ligand binding …); assay: AlphaScreen or HTRF; TR-FRET: 3 nM His-tagged RARα LBD, 0.5 nM anti-6HIS Tb cryptate (donor), 50 nM FITC-SRC (acceptor); 1x PBS, 0.02% Pluronic F-127, 5 mM DTT, pH 7.4; 1 h; increasing concentrations of CIM7, ATRA or AM580; conditions: both partners purified

Molecule: CC1=C(/C=C/C(C)=C/C=C/C(C)=C/C(=O)O)C(C)(C)CCC1 [ATRA, All-trans retinoic acid]
- TR-FRET coactivator peptide recruitment [1]: rather enhance binding of the coactivator, SRC

- binding result [2]: binds
B1: FITC-NCoR1 peptide (FITC-Ahx-RLITLADHICQIITQDFAR) (peptide)
peptide: {FITC-Ahx}-RLITLADHICQIITQDFAR
notes: peptide of nuclear receptor corepressor 1 (NCoR1); also called NCoR1 fluorescent peptide; source: synthetic peptide (GenScript, purity >95%)

- binding result [3]: binds
B2: FITC-SRC peptide (FITC-Ahx-RHKILHRLLQEGS) (peptide)
peptide: {FITC-Ahx}-RHKILHRLLQEGS
notes: source: synthetic peptide (GenScript, purity >95%)
